The supplement of paper PMC10201428
± gives the standard deviation of the averaged measurements.

The sequences below were run on VchCAST RNA-guided transposition machinery (E. coli BL21(DE3) host, lacZ target) (assay: relative integration efficiency (T-RL orientation) vs wild-type transposon end (log2 (normalized fold change)); transposon end mutated: right end (5 bp flank + 75 bp right end); higher = more efficient transposition).
Summary of the method: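 Co-transformation of E. coli BL21(DE3) combined a pUC57 mini-transposon donor, holding barcoded pools of 1549 left-end or 1849 right-end variants, with a T7-driven plasmid encoding a CRISPR array, tniQ-cas8-cas7-cas6 and tnsA-tnsB-tnsC. After plating with 0.1 mM IPTG at 37°C for 18 h, input plasmids and genomic integration junctions were PCR-amplified and Illumina-sequenced across two biological output replicates, with four reference barcodes. Relative integration efficiency is the normalised, log-transformed output/input barcode fold change.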

Going from “ACATTAGTCGATACAACCATAAAATGATAATTACACCCATAAATTGATAATTATCACACCCAATTTAACTATAACGCTCTGATCATAGTCAGACCAACATTGCTACGACCCGTATTCGCACCGACAC” to “ACATTTGTTGATCCAACCATAAAATGATAATTACACCCATAAATGGATCATTATCACACCCAATTTAACTATAACGCTCTGATCATAGTCAGACCAACATTGCTACGACCCGTATTCGCACCGACAC”, the “relative integration efficiency (log2)” value rises from -7.53 ± 1.2 to -1.74 ± 0.32.

“ACATTTGTCGATACAACCATAAAACGATAATTACACCCATAAATTCATAATTATCACACCCAATTTAACTATAACGCTCTGATCATAGTCAGACCAACATTGCTACGACCCGTATTCGCACCGACAC” and “ACATTTGTTGATACAACCATAAAATGATAATTAATAATTCACCCATAAATTGATAATTATCAACAAACGCCCGGTCGCGGTACTCTGATCATAGTCAGACCAACATTGCTACGACCCGTATTCGCAC” are within error of each other in “relative integration efficiency (log2)” value: -2.45 ± 0.33 for the first, -1.96 ± 0.21 for the second.

Compared with “ACATTTGTTGATACACCCATAAATTGATAATTACAACCATAAAATGATAATTATCACAACCATAAGTTGATATTTTCTCTGATCATAGTCAGACCAACATTGCTACGACCCGTATTCGCACCGACAC”, “ACATTTGTTGATACAACCATAAAATGATAATTACACCCATAAATTGATAATTATCACACCCATAAATTGATCTCTGATCATAGTCAGACCAACATTGCTACGACCCGTATTCGCACCGACACTGACT” is higher in “relative integration efficiency (log2)” value: -0.795 ± 0.13 for the first, -0.209 ± 0.021 for the second.

Going from “ACATTTGTTGATACAACCATAAAATGATAATTAATAATTATTTATCACCCATAAATTGATAATTATCACACCCATAAATTGATATTGCCTCTGATCATAGTCAGACCAACATTGCTACGACCCGTAT” to “ACATTTGTTGATACAACCATAAAGTGATATTTACACCCATAAATTGATAATTATCACAACCATATATTGATATCTCCTCTGATCATAGTCAGACCAACATTGCTACGACCCGTATTCGCACCGACAC”, the “relative integration efficiency (log2)” value rises from -3.21 ± 0.32 to -0.382 ± 0.084.

Going from “ACATTTGTTGATACAACCATATAATGATAATAACACCCATAAAATGATAATTATCACACCCAATTTAACTATAACGCTCTGATCATAGTCAGACCAACATTGCTACGACCCGTATTCGCACCGACAC” to “ACATTTGTTGATACAACCATAAAATGATAATTAATAATTATTTATACACCCATAAATTGATAATTATCAACAAACGCCCGGTCGCGGTACTCTGATCATAGTCAGACCAACATTGCTACGACCCGTA”, the “relative integration efficiency (log2)” value falls from -1.15 ± 0.33 to -3.12 ± 0.48.

Going from “ACATTTGTTGATACAACCATAAAATGATAATTACACCCATAAATTGATAATTATCACACCCATAAATTGATATTGCCTCTGATCATAGTCAGCTGAAGCGAGACACCGACCAACATTGCACCGACAC” to “ACATTTGTGGATACAACCCTAAAATGATAATTACACCCATAAATGGATAATTATCACCCCCAATTTAACTATAACGCTCTGATCATAGTCAGACCAACATTGCTACGACCCGTATTCGCACCGACAC”, the “relative integration efficiency (log2)” value falls from -0.174 ± 0.19 to -3.8 ± 0.4.

Going from “ACATTTGTTTATACAACCATAAAATGATAATTACACCCATAAATGGATAATTATCACACCCAATTTAACTATAACGCTCTGATCATAGTCAGACCAACATTGCTACGACCCGTATTCGCACCGACAC” to “ACATTAGTGGATACAACCATAAAATGATAATTACACCCATAAATTGATAATTATCACACCCAATTTAACTATAACGCTCTGATCATAGTCAGACCAACATTGCTACGACCCGTATTCGCACCGACAC”, the “relative integration efficiency (log2)” value falls from -1.86 ± 0.27 to -5.98 ± 0.27.

“ACATTTGTTGATACAACCATAAAATGATCCGGACACCCATAAATTGATAATTATCACACCCATAAATTGATATTGCCTCTGATCATAGTCAGACCAACATTGCTACGACCCGTATTCGCACCGACAC” and “ACATTTGTTGATACAACCATAAAATGATAATTACACCCATAAATTGATATCACACCCATAAATTGATATTGCCTCTGATCATAGTCAGACCAACATTGCTACGACCCGTATTCGCACCGACACTGAC” are within 0.2 log units of each other in “relative integration efficiency (log2)” value: -1.23 ± 0.15 for the first, -1.06 ± 0.31 for the second.

Going from “ACATTTGTTGATACAACCATAAAATGATAATTACACCCCGAAATTGATAATTATCACACCCATAAATTGATATTGCCTCTGATCATAGTCAGACCAACATTGCTACGACCCGTATTCGCACCGACAC” to “ACATTTGTTGATACAACCATATATTGATATCTCCAACCATATATTGATATCTCTCAGTGGGTATTTAACTATAACGCTCTGATCATAGTCAGACCAACATTGCTACGACCCGTATTCGCACCGACAC”, the “relative integration efficiency (log2)” value rises from -3.14 ± 0.19 to -1.48 ± 0.31.

Compared with “ACATTTGTTGATACAACCATAAAATGATAATTACCACCCCTACATTGATAATTATCACACCCATTTAACTATAACGCTCTGATCATAGTCAGACCAACATTGCTACGACCCGTATTCGCACCGACAC”, “ACATTTGTTGATACAACCATAAAATGATAATTACACCCATAAATTGATAATTATCACACCCATAAATTGATATTGCCTCTGGCTAGCATTGTACCTAGGACTGAGCTAGCCATAAACGCACCGACAC” is higher in “relative integration efficiency (log2)” value: -3.12 ± 0.17 for the first, -0.0442 ± 0.11 for the second.

Going from “ACATTTGTTGATACAACCATAAAATGATAATTAATACACCCATAAATTGATAATTATCACACCCATAAATTGATATTGCCTCTGATCATAGTCAGACCAACATTGCTACGACCCGTATTCGCACCGA” to “ACATTTGTTGATACAACCATAATTTGATAATTACACCCATAAATTGATAATTATCACACCCATAAATTGATATTGCCTCTGATCATAGTCAGACCAACATTGCTACGACCCGTATTCGCACCGACAC”, the “relative integration efficiency (log2)” value rises from -3.47 ± 0.4 to -0.314 ± 0.1.

Going from “ACATTTGTTGATACAACCATAAAATGGTAATTACACCCCTACATTGATAATTATCACACCCAATTTAACTATAACGCTCTGATCATAGTCAGACCAACATTGCTACGACCCGTATTCGCACCGACAC” to “ACATTTGTTGATACCACCATCAAATGATAATTACACCCCTAAATTGATAATTATCACACCCAATTTAACTATAACGCTCTGATCATAGTCAGACCAACATTGCTACGACCCGTATTCGCACCGACAC”, the “relative integration efficiency (log2)” value falls from -3.67 ± 0.066 to -4.72 ± 0.056.

“ACATTTGTTGATACAACCATAAAATGATAATTACACCCATAAATTGATAATTATCACTGGGATAAATTGATATTGCCTCTGATCATAGTCAGACCAACATTGCTACGACCCGTATTCGCACCGACAC” and “ACATTTGTTGATACAACCATATATTGATATCTCCACCCATAAATTGATAATTATCACAACCATAAAGTGATATTTACTCTGATCATAGTCAGACCAACATTGCTACGACCCGTATTCGCACCGACAC” are within 0.2 log units of each other in “relative integration efficiency (log2)” value: -0.4 ± 0.027 for the first, -0.345 ± 0.0079 for the second.

Compared with “ACATTTGTTGATACAACCATAAAACGATAATTACACCCATAAATTGATCATTATCACACCCAATTTAACTATAACGCTCTGATCATAGTCAGACCAACATTGCTACGACCCGTATTCGCACCGACAC”, “ACATTTGTTGATACAACCATTAAATGATAATTACACCCATAATTTGATAATTATCACACCCAATTTAACTATAACGCTCTGATCATAGTCAGACCAACATTGCTACGACCCGTATTCGCACCGACAC” is higher in “relative integration efficiency (log2)” value: -1.68 ± 0.16 for the first, -0.76 ± 0.025 for the second.

“ACATTTGTTGATACAACCATAAAATGATAATTACACCCATAAATTGATAATTATCACACCCATCCCGGTCGCGGTAAGAGGATCATAGTCAGACCAACATTGCTACGACCCGTATTCGCACCGACAC” and “ACATTTGTTGATACAACCATAAAATGATAATTACACCCATAAATTGATAATTATCACACCCATAAATGTCGCGGTAAGAGGATCATAGTCAGACCAACATTGCTACGACCCGTATTCGCACCGACAC” are within 0.2 log units of each other in “relative integration efficiency (log2)” value: -0.648 ± 0.11 for the first, -0.671 ± 0.0087 for the second.

Going from “ACATTTGTTGATACAACCATAAAATGATAATTAATAATTATCACCCATAAATTGATAATTATCAACAAACGCCCGGTCGCGGTACTCTGATCATAGTCAGACCAACATTGCTACGACCCGTATTCGC” to “ACATTTGTTGATACACCCATAAATTGATAATTACAACCATATATTGATATCTCTCACACCCATAAATTGATAATTACTCTGATCATAGTCAGACCAACATTGCTACGACCCGTATTCGCACCGACAC”, the “relative integration efficiency (log2)” value rises from -3.56 ± 0.2 to -0.753 ± 0.22.
